In paper PMC9732523:

B1: mRunx1 int3-4 (ssRNA)
RNA: UCCUCCUCCCUUCCCCUCCCGGUCCCUA
B2: hRUNX1 int3-4 (ssRNA)
RNA: UCUCUUCCCUCCCUCCUUCCCUCCCCCCAU

Biological target: hnRNP K (UniProt P61978 1-463)
Assay: fluorescence anisotropy

Binder | Kd
B1 | 14.5 nM
B2 | 13.5 nM
